According to US20230303695A1 (SHANGHAI XBH BIOTECHNOLOGY, published 2023):

T1: IGSF8 protein without D1 domain (human, UniProt Q969P0 150-579, limits assumed)
T1 construct: domain: D2-4; also called D24; D2-4
T1 sequence (looked up): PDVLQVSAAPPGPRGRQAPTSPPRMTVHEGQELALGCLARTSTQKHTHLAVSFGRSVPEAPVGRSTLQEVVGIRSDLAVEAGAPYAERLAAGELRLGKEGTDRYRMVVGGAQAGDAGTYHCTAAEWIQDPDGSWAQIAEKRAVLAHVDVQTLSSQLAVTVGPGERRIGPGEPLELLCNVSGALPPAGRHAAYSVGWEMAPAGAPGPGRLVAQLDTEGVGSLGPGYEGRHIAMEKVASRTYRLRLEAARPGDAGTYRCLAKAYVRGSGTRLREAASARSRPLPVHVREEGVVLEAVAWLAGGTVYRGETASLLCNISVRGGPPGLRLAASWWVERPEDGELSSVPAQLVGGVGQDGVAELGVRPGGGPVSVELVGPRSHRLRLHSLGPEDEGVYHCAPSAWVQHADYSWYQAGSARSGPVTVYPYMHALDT

T2: recombinant human IGSF8 extracellular domain tagged by a human Fc region (IGSF8-hFc) (human, UniProt Q969P0 28-579, biotin label in Examples 17, 18 and 28 (site not given))
T2 construct: also called IGSF8-Fc fusion protein; IGSF8-hFc-biotin; not shown: human Fc region
T2 sequence: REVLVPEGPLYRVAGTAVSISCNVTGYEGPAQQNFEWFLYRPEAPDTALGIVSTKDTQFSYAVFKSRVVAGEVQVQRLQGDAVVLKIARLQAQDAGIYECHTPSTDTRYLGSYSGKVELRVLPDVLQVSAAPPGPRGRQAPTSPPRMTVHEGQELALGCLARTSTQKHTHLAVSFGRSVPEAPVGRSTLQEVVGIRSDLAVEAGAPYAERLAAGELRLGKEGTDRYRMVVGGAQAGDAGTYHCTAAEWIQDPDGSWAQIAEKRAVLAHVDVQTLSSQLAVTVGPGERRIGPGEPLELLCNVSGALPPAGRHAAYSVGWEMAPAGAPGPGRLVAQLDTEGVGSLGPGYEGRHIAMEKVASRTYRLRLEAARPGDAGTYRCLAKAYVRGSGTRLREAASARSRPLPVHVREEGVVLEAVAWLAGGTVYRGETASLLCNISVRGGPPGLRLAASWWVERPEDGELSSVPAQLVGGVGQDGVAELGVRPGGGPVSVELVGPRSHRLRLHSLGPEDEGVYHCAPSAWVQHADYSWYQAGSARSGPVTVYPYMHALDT

T3: D1 domain of IGSF8 (recombinant protein) (human, UniProt Q969P0 28-149, limits assumed)
T3 construct: domain: D1 (Ig V-set domain); also called Ig V-set domain of IGSF8
T3 sequence (looked up): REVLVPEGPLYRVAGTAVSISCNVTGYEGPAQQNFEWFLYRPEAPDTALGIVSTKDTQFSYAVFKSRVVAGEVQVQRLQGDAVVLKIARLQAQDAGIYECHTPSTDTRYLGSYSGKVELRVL

T4: mouse IGSF8 expressed on CT26 cells (mouse, UniProt Q8R366 26-611)
T4 construct: whole, on cells
T4 sequence (looked up): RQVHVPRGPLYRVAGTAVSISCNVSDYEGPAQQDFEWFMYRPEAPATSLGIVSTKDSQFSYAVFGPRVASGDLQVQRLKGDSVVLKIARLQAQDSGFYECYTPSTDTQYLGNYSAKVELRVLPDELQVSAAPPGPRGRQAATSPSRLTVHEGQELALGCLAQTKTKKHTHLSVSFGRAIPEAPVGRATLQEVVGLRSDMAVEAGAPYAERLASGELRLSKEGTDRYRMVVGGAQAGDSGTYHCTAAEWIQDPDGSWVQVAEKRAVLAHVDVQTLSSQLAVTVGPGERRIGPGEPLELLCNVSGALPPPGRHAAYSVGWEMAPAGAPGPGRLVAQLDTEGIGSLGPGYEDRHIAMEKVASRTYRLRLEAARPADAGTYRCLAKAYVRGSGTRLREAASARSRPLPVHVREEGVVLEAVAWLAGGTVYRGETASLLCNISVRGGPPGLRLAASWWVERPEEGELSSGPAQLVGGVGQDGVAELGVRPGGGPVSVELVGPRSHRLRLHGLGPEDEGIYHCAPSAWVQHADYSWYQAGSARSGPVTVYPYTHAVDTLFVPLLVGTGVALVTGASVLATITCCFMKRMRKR

T5: full-length IGSF8 (recombinant antigen of the SPR screen; IGSF8 target antigen of the phage panning) (human, UniProt Q969P0 28-579, limits assumed)
T5 sequence (looked up): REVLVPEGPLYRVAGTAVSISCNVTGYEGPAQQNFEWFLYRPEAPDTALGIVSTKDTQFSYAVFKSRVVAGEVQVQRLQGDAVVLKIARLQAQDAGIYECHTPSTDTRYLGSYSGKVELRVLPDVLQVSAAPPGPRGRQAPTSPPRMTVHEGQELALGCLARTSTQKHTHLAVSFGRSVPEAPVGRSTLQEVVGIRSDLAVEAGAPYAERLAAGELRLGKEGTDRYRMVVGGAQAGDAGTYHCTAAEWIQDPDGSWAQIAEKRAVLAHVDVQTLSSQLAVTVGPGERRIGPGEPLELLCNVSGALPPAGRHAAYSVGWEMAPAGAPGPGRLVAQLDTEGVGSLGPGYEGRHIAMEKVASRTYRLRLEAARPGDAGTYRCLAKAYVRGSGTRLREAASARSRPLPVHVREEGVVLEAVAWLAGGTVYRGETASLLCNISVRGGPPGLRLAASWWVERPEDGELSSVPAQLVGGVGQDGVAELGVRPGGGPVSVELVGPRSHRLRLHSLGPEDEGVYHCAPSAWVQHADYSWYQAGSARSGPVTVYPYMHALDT

T6: human IGSF8 expressed on the cell surface (human, UniProt Q969P0 28-613)
T6 construct: whole, on cells; also called human IGSF8 on CT26 cells; IGSF8 on MC38 cells
T6 sequence (looked up): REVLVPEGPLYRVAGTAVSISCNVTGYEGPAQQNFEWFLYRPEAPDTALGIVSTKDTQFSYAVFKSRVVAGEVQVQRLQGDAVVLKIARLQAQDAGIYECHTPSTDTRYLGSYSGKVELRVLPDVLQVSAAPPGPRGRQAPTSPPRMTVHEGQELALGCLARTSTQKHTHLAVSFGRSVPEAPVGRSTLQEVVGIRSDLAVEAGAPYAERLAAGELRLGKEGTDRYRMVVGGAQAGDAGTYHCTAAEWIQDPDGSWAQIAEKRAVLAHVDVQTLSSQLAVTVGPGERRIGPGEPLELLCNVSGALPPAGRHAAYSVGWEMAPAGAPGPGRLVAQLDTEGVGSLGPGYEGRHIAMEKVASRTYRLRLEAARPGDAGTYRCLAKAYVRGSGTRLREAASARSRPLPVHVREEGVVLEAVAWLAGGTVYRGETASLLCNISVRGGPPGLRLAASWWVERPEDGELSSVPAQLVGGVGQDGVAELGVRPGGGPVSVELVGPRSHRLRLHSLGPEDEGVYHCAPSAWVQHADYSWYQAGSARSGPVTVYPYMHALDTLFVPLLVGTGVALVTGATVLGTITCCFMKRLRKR

B1: KIR3DL1 expressed on CT26 cells (receptor, human, UniProt P43629 22-444, looked up)
chain: HMGGQDKPFLSAWPSAVVPRGGHVTLRCHYRHRFNNFMLYKEDRIHIPIFHGRIFQESFNMSPVTTAHAGNYTCRGSHPHSPTGWSAPSNPVVIMVTGNHRKPSLLAHPGPLVKSGERVILQCWSDIMFEHFFLHKEGISKDPSRLVGQIHDGVSKANFSIGPMMLALAGTYRCYGSVTHTPYQLSAPSDPLDIVVTGPYEKPSLSAQPGPKVQAGESVTLSCSSRSSYDMYHLSREGGAHERRLPAVRKVNRTFQADFPLGPATHGGTYRCFGSFRHSPYEWSDPSDPLLVSVTGNPSSSWPSPTEPSSKSGNPRHLHILIGTSVVIILFILLLFFLLHLWCSNKKNAAVMDQEPAGNRTANSEDSDEQDPEEVTYAQLDHCVFTQRKITRPSQRPKTPPTDTILYTELPNAKPRSKVVSCP
notes: whole, on cells; lentiviral vector containing a thy1.1 tag
B2: Antibody C31 (B46) (antibody, V domains shown)
VH: QVQLVESGGGVVQPGRSLRLSCAASGFTFSTYGMHWVRQAPGKGLEWVAVIWDDGSYKYYGDSVKGRFTISRDNSKNTLYLQMNSLRAEDTAVYYCAGGYSYSYMAIWGKGTTVTVSS
VL: DIVLTQSPSSLSASVGDRVTITCRASQGISTFLNWYQQKPGKAPKLLIYAASSLQSGVPSRFSGSGSGTDFTLTIGSLQPEDFASYFCQQTYSTQWTFGQGTKVEIK
notes: also called mAb-B46 (C31)
B3: Antibody C36 (1B4) (antibody, V domains shown)
VH: EVQLLESGGGLVQPGGSLRLSCAASGFTFSSYAMSWVRQAPGKGLEWVSGITGSGGSTYYADSVKGRFTISRDNSKNTLYLQMNSLRAEDTAIYYCARGGALDIWGQGTMVTVSS
VL: DIQMTQSPSSLSASVGDRVTITCRASQVIHNYLAWYKQKPGQAPKLLIYSASSLQSGVPSRFSGSGSGTDFTLTISSLQPEDFATYYCQQSYSTPLTFGGGTKVEIKR
notes: also called mAb-1B4 (C36)
B4: Antibody C32 (B104) (antibody, IgG1, V domains shown)
VH: QVQLVQSGAEVKRPGASVKVSCKASGYTFTNDIIHWVRQAPGQRLEWMGWINAGYGNTQYSQNFQDRVSITRDTSASTAYMELISLRSEDTAVYYCARGYYRSPTWFDWWGQGTLVTVSS
VL: ETTLTQSPSSLSASVGDRVTITCRASQSISSWLAWYQQKPGKAPKLLIYKASSLESGVPSRFSGSGSGTEFTLTISSLQPDDFATYYCQQYGDYPYTFGQGTKLEIKR
notes: also called mAb-B104 (C32)
B5: KLRC1/KLRD1 heterodimer expressed on CT26 cells (receptor)
chain 1: not shown
chain 2: MAVFKTTLWRLISGTLGIICLSLMSTLGILLKNSFTKLSIEPAFTPGPNIELQKDSDCCSCQEKWVGYRCNCYFISSEQKTWNESRHLCASQKSSLLQLQNTDELDFMSSSQQFYWIGLSYSEEHTAWLWENGSALSQYLFPSFETFNTKNCIAYNPNGNALDESCEDKNRYICKQQLI
notes: whole, on cells; cells co-transfected with both lentiviral constructs; also called KLRC1&D1 heterodimer; KLRC1/D1

Legend:
[1] = biological target: T1, IGSF8 protein without D1 domain; test: FACS, hFc-tagged proteins on CT26 cells expressing the receptor, MFI normalized to Thy1.1
Method: (§1) KLRC1 also contains a ITIM motif in its intracellular domain, and was known to be a inhibitory receptor of NK or CD8⁺ T cells as part of a heterodimer with KLRD1 on the cell surface. […] Specifically, 100,000 CT26 cells overexpressing the antigens (KIRs or KLRs) were washed with PBS buffer containing 2% FBS, and incubated with 100 μL IGSF8 recombinant proteins or antibodies (5 μg/mL) for 30 minutes on ice. Cells were then washed twice with wash buffer, and incubated with 100 μL of 1:100 anti-human Fc-PE antibody for 15 minutes on ice. Cells were washed twice with wash buffer and analyzed on a FACS analyzer (CytoFlex, Beckman). In these experiments, the mean fluorescence intensity (MFI) of IGSF8 binding to different CT26 cells were normalized by the expression of different KLRs on CT26 cells using an anti-thy1.1 mAb via flow cytometry.

[2] = biological target: T2, recombinant human IGSF8 extracellular …; test: FACS, biotin-labelled IGSF8-hFc on CT26 cells expressing the KIR, MFI normalized to Thy1.1
Method: For this experiment, different human KIR receptors (KIR2DL1, KIR2DL2, KIR2DL3, KIR2DL4, KIR2DL5A, KIR2DL5B, KIR3DL1, KIR3DL2, KIR3DL3) were first cloned into a proprietary lentiviral vector containing a thy1.1 tag (FIG. 17A). Then mouse CT26 cells, were transducted by these lentiviral constructs, and IGSF8 binding was tested with biotin-labelled recombinant IGSF8 hFc fusion protein. The mean fluorescence intensity (MFI) of IGSF8 binding to different CT26 cells were normalized by the expression of different KIRs on CT26 cells using an anti-thy1.1 mAb (Biolegend) via flow cytometry.
as §1

[3] = biological target: T3, D1 domain of IGSF8 (recombinant protein); test: SPR, Biacore T100
[4] = biological target: T4, mouse IGSF8 expressed on CT26 cells; test: FACS on CT26 cells
[5] = biological target: T5, full-length IGSF8 (recombinant antigen …); test: SPR, Biacore T100
[6] = biological target: T6, human IGSF8 expressed on the cell …; test: FACS on CT26 cells with forced surface expression of human IGSF8
Method: For antibody binding assays based on cell-expressed antigens, 100,000 cells overexpressing the antigen (either the full-length IGSF8 or the D1 domain thereof) were washed with PBS buffer containing 2% FBS, and then incubated with 100 μL of antibodies or IgG of different concentrations for 30 minutes on ice. Cells were then washed twice with wash buffer, and incubated with 100 μL of 1:100 anti-human Fc-PE antibody for 15 minutes on ice. Cells were washed twice with wash buffer and analyzed on a FACS analyzer (CytoFlex, Beckman).

[7] = biological target: T1, IGSF8 protein without D1 domain; test: FACS, single antibody dose, IGSF8-D24 (D2-D4 with TM, no D1) expressed on CT26 cells

| Binder | binding result [1] | binding result [2] | Kd [3] [nM] | binding result [4] | Kd [5] [nM] | EC50 [6] [nM] | binding result [7] |
| --- | --- | --- | --- | --- | --- | --- | --- |
| B1 | no binding | binds |  |  |  |  |  |
| B2 |  |  | < 50 | binds | 7.29 | 2.08 | no binding (tested: not shown on the sheet) |
| B3 |  |  | < 50 | binds | 4.57 | 2.02 |  |
| B4 |  |  | < 50 | binds | 25.9 | 5.42 | no binding (tested: not shown on the sheet) |
| B5 | no binding |  |  |  |  |  |  |
